Assay results published in the supplement of paper PMC10126150.
± gives the standard deviation of the averaged measurements.

Test system: ATP
Assay: switch fluorescence ratio, 500 uM ATP over buffer (Cy3 cluster intensity, sum of 5 cycles each) (fold (ratio)); higher = stronger signal-on switching upon ATP binding; sequences stand for … in TCGTCGGCAGCGTCAGATGTGTATAAGAGACAGTTTTTTTTTTTTTTTTTTTTTTTTT…TC
Conditions: aptamer strand: ATP DNA aptamer (quencher-CACCTGGGGGAGTATTGCGGAGGAAGG + anchor), 100 nM annealed; ATP concentration: 500 uM
Method in brief: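 After annealing to 100 nM quencher-labelled ATP aptamer, Cy3-labelled switching-strand clusters on a modified Illumina MiSeq flow-cell were imaged in selection buffer. A second image followed after 15 min with 500 uM ATP at 22 °C, and five such buffer/ATP cycles were done, each separated by NaOH stripping and re-annealing. The fluorescence ratio, averaged per switch-domain sequence, is summed target-cycle over summed buffer-cycle Cy3 intensity per cluster, with clusters outside 100-1000 RFU excluded.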
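Note: ATP exposure 15 min at 22 °C before imaging.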

TAAGGTGGTA
switch fluorescence ratio: 1.02 ± 0.014

GTTGTTTTTG
switch fluorescence ratio: 1.02 ± 0.028

CTGGTGCCGA
switch fluorescence ratio: 0.985 ± 0.015

TGGAAACCGG
switch fluorescence ratio: 1.009 ± 0.0055

TTTTCGGACA
switch fluorescence ratio: 1.033 ± 0.0027

TCTATTGGGA
switch fluorescence ratio: 0.981 ± 0.028

CTGTATTCTG
switch fluorescence ratio: 0.962 ± 0.015

AATAAAATT
switch fluorescence ratio: 1.03 ± 0.076

GGTTTATTTG
switch fluorescence ratio: 1.01 ± 0.016

TTTGTTATTG
switch fluorescence ratio: 1.3 ± 0.44

CGTCAAAAAC
switch fluorescence ratio: 1.38 ± 0.2

AAGGTGAGGG
switch fluorescence ratio: 1.03 ± 0.02

GGTCATGTTG
switch fluorescence ratio: 0.997 ± 0.051

CGGGTTTTCC
switch fluorescence ratio: 1.03 ± 0.042

TAAAGTAAAT
switch fluorescence ratio: 0.9668 ± 0.0028

GGTGTCATAT
switch fluorescence ratio: 0.984 ± 0.024

CTGGTCTATT
switch fluorescence ratio: 0.968 ± 0.017

AGTCTTGGGG
switch fluorescence ratio: 0.977 ± 0.019

CCCCCACTGG
switch fluorescence ratio: 1.1 ± 0.15

GCATTTCATG
switch fluorescence ratio: 0.987 ± 0.021

AATGGTGAAT
switch fluorescence ratio: 0.996 ± 0.03

TCCCACTTCG
switch fluorescence ratio: 1.03 ± 0.053

TGACTAGGGG
switch fluorescence ratio: 0.949 ± 0.1

GGCATTTGGT
switch fluorescence ratio: 0.993 ± 0.025

AAGGAGTTGG
switch fluorescence ratio: 0.989 ± 0.025

GAGAAAATTT
switch fluorescence ratio: 0.989 ± 0.043

GGAAGCGTTC
switch fluorescence ratio: 1.03 ± 0.04

CTGAAGCTCA
switch fluorescence ratio: 1.91 ± 0.044

TATAACGTCC
switch fluorescence ratio: 1.11 ± 0.093

GCAGCATCTG
switch fluorescence ratio: 1.01 ± 0.024

GTTTTATGCT
switch fluorescence ratio: 1.01 ± 0.017

GGGGGGATCA
switch fluorescence ratio: 0.985 ± 0.026

TGTTGTTTTT
switch fluorescence ratio: 0.991 ± 0.037

ATATGGATAC
switch fluorescence ratio: 1.05 ± 0.045

AGGGAAATAG
switch fluorescence ratio: 1.02 ± 0.023

GGCAGTAGTG
switch fluorescence ratio: 1.002 ± 0.0037

GCTAACCCTT
switch fluorescence ratio: 1.06 ± 0.0036

CGGGGGATGG
switch fluorescence ratio: 1.01 ± 0.045

AATGCGGTAT
switch fluorescence ratio: 1.01 ± 0.023

ATTGTGCGAC
switch fluorescence ratio: 1 ± 0.021

GATGAATGAC
switch fluorescence ratio: 1.02 ± 0.016

GGGGGTCCCG
switch fluorescence ratio: 1 ± 0.012

CAACGGGCGG
switch fluorescence ratio: 1 ± 0.019

AGCTTATCTA
switch fluorescence ratio: 1 ± 0.011

AGGTAGCATA
switch fluorescence ratio: 1.05 ± 0.03

GGGTCCGCGG
switch fluorescence ratio: 1.04 ± 0.011

TAAAGTGCAT
switch fluorescence ratio: 1.036 ± 0.0066

TCGAACTAGG
switch fluorescence ratio: 1 ± 0.018

TAATTAATGC
switch fluorescence ratio: 1.02 ± 0.037

TTGGGGAGTG
switch fluorescence ratio: 0.988 ± 0.017

GGTTGACCCC
switch fluorescence ratio: 0.978 ± 0.027

TGATAGGATT
switch fluorescence ratio: 0.9764 ± 0.0021

GATTTTGTCT
switch fluorescence ratio: 0.9923 ± 0.0099

TTGATAAGTT
switch fluorescence ratio: 0.9751 ± 0.0069

GAGAATGGCA
switch fluorescence ratio: 0.964 ± 0.028

TAAGTGATG
switch fluorescence ratio: 1 ± 0.034

ATGGTGCGGG
switch fluorescence ratio: 1.02 ± 0.033

AAAATGGCAG
switch fluorescence ratio: 1.004 ± 0.0089

TCTTGTCGTT
switch fluorescence ratio: 1.019 ± 0.0077

CGGGCGGGTG
switch fluorescence ratio: 1.03 ± 0.017

TCCCTACTGT
switch fluorescence ratio: 1.02 ± 0.017

TAGGGCGCCA
switch fluorescence ratio: 0.995 ± 0.057

TAATCACGAA
switch fluorescence ratio: 1.036 ± 0.0039

GAAAATTGGT
switch fluorescence ratio: 0.997 ± 0.023

GATGCTGGCG
switch fluorescence ratio: 1.01 ± 0.052

ATTATTGACT
switch fluorescence ratio: 1.04 ± 0.014

TATGTTATGT
switch fluorescence ratio: 1.01 ± 0.052

CGGTTTTTTC
switch fluorescence ratio: 1.03 ± 0.027

AGAGTTCCGG
switch fluorescence ratio: 1 ± 0.029

ATGTCCGAAT
switch fluorescence ratio: 1.02 ± 0.012

GAGGGGGATC
switch fluorescence ratio: 1.02 ± 0.035

CGACTTACAT
switch fluorescence ratio: 1.24 ± 0.057

TTATAAGCGA
switch fluorescence ratio: 1.02 ± 0.035

TAGGGGAATA
switch fluorescence ratio: 1.01 ± 0.044

GGGGATGTGG
switch fluorescence ratio: 0.99 ± 0.037

TGGGAGAGGG
switch fluorescence ratio: 1.01 ± 0.02

TGAGTTGAAG
switch fluorescence ratio: 0.9869 ± 0.0056

TGGAGGATTG
switch fluorescence ratio: 0.991 ± 0.016

GTTTAGGAGG
switch fluorescence ratio: 0.989 ± 0.022

TTAAGGGTGG
switch fluorescence ratio: 0.991 ± 0.021

GCGATTGGAG
switch fluorescence ratio: 1.01 ± 0.034

GATGAAATGT
switch fluorescence ratio: 0.994 ± 0.015

CATTGGTAAT
switch fluorescence ratio: 1.018 ± 0.0059

TCAGGGGCTT
switch fluorescence ratio: 1.16 ± 0.28

TACGTTTTTC
switch fluorescence ratio: 1.003 ± 0.0048

TTAAGACCAC
switch fluorescence ratio: 1.01 ± 0.012

GAGTAATGCT
switch fluorescence ratio: 1.27 ± 0.017

GCTACTGGCC
switch fluorescence ratio: 1.02 ± 0.039

TGAACTGCTG
switch fluorescence ratio: 1.017 ± 0.0049

CATCTGGGCA
switch fluorescence ratio: 1.03 ± 0.013

TAATAAATGT
switch fluorescence ratio: 0.9941 ± 0.0044

TAGTATAG
switch fluorescence ratio: 0.9745 ± 0.0045

TGCGTTTGGG
switch fluorescence ratio: 1.05 ± 0.064

AAGCAGGGAT
switch fluorescence ratio: 0.999 ± 0.033

TTATAGAGGT
switch fluorescence ratio: 1.01 ± 0.011

GCGGTGAGAA
switch fluorescence ratio: 0.983 ± 0.028

GGGTTGTGTG
switch fluorescence ratio: 0.991 ± 0.11

CCGGTCTTGA
switch fluorescence ratio: 1.01 ± 0.039

ATCGCGGATT
switch fluorescence ratio: 0.994 ± 0.023

AATGGCTGTG
switch fluorescence ratio: 0.972 ± 0.033

ATAGTAGTCA
switch fluorescence ratio: 1.01 ± 0.024

TTTGGGGCAG
switch fluorescence ratio: 1.06 ± 0.078

TGGGGATGGG
switch fluorescence ratio: 0.996 ± 0.029

GCGATCTGGA
switch fluorescence ratio: 1.04 ± 0.022

AATAATGTTG
switch fluorescence ratio: 0.998 ± 0.015

CGGGTGGGGA
switch fluorescence ratio: 1.01 ± 0.04

TATGCGGTCC
switch fluorescence ratio: 1.02 ± 0.019

CGATTAGTTA
switch fluorescence ratio: 0.998 ± 0.023

GAAATTCTAT
switch fluorescence ratio: 0.985 ± 0.033

TCGGAATAGA
switch fluorescence ratio: 1.22 ± 0.26

GGGGGTGATG
switch fluorescence ratio: 1 ± 0.035

ACAAGTAAGC
switch fluorescence ratio: 1.048 ± 0.0067

CAACTTTAGT
switch fluorescence ratio: 1.031 ± 0.0035

TTGTGGGTTT
switch fluorescence ratio: 1.05 ± 0.2

TGGGAAGAGT
switch fluorescence ratio: 0.996 ± 0.028

TATTTTGTGG
switch fluorescence ratio: 0.984 ± 0.026

TTCGTAACGC
switch fluorescence ratio: 1.03 ± 0.038

ATTACTTAAG
switch fluorescence ratio: 1 ± 0.046

GCCGTTTTGG
switch fluorescence ratio: 1 ± 0.034

AGTTGTGTTT
switch fluorescence ratio: 0.966 ± 0.043

GATAATCTGT
switch fluorescence ratio: 0.984 ± 0.048

CCGTGGTATA
switch fluorescence ratio: 1.151 ± 0.0068

AGGGCGCGGA
switch fluorescence ratio: 1.05 ± 0.016

AAAGTTAGTT
switch fluorescence ratio: 1.03 ± 0.019

TTTTTTATTA
switch fluorescence ratio: 0.986 ± 0.023

TTTTGAGAGG
switch fluorescence ratio: 0.983 ± 0.036

ACTGTTGGCG
switch fluorescence ratio: 0.965 ± 0.067

GGGCGCGGGA
switch fluorescence ratio: 0.991 ± 0.015

AATGTTAGGC
switch fluorescence ratio: 1.02 ± 0.034

CCCTCGCGGT
switch fluorescence ratio: 1.78 ± 0.027

GGTCGAAGGC
switch fluorescence ratio: 0.9859 ± 0.0069

ATTAGGAGAT
switch fluorescence ratio: 0.9964 ± 0.0063

GCAGGCGGGG
switch fluorescence ratio: 1.02 ± 0.034

CTAAAACAGG
switch fluorescence ratio: 1.02 ± 0.03

GTCTTGGCTC
switch fluorescence ratio: 1.02 ± 0.031

TCGAAAGGCA
switch fluorescence ratio: 1.04 ± 0.031

CAATCTTGTC
switch fluorescence ratio: 0.975 ± 0.057

TGTGAACGGA
switch fluorescence ratio: 1.004 ± 0.01

CCTTTTCAGG
switch fluorescence ratio: 1.03 ± 0.023

ATCAGAACAA
switch fluorescence ratio: 1.01 ± 0.0069

ACGGGTTCCT
switch fluorescence ratio: 1 ± 0.025

AGTGGGTCGG
switch fluorescence ratio: 0.9824 ± 0.0097

CGGAATTTCC
switch fluorescence ratio: 1.09 ± 0.048

TCGAAAATGT
switch fluorescence ratio: 1.01 ± 0.081

GTGGAGACGG
switch fluorescence ratio: 0.988 ± 0.034

GGGGGCTTGT
switch fluorescence ratio: 1 ± 0.019

AGTATATAGT
switch fluorescence ratio: 1.004 ± 0.0073

TTTGCAATTA
switch fluorescence ratio: 1.57 ± 0.5

TTGTTATGGT
switch fluorescence ratio: 1 ± 0.025

TGACCGTTTT
switch fluorescence ratio: 0.999 ± 0.025

GTTTCGAAAA
switch fluorescence ratio: 0.9855 ± 0.0074

CGTTATATTT
switch fluorescence ratio: 1.07 ± 0.14

GGAAGGCGGG
switch fluorescence ratio: 1.11 ± 0.16

TTAGTTAAAG
switch fluorescence ratio: 1 ± 0.014

TTTTTGGCTG
switch fluorescence ratio: 0.9818 ± 0.0049

TGATGCAAGA
switch fluorescence ratio: 1.3 ± 0.063

TTGAAACAGA
switch fluorescence ratio: 0.985 ± 0.038

CAAGTTTATT
switch fluorescence ratio: 1.001 ± 0.01

AGATTACCTG
switch fluorescence ratio: 1.02 ± 0.027

TGGTACGTGG
switch fluorescence ratio: 0.974 ± 0.032

GGATTACGAC
switch fluorescence ratio: 1.12 ± 0.15

GCTCTAGTGG
switch fluorescence ratio: 1.01 ± 0.022

TGCATGTCTC
switch fluorescence ratio: 1.43 ± 0.46

TGAGGGTTGC
switch fluorescence ratio: 1.01 ± 0.018

CTGTTTGTTG
switch fluorescence ratio: 0.9707 ± 0.0013

ATGGGCGGGG
switch fluorescence ratio: 0.9947 ± 0.0065

GGTTTCTACA
switch fluorescence ratio: 1 ± 0.034

TAGATTCGCT
switch fluorescence ratio: 0.993 ± 0.039

GTATGAGGTG
switch fluorescence ratio: 1.02 ± 0.044

GGGACGTGTG
switch fluorescence ratio: 1.007 ± 0.0068

AGTAAGGGGG
switch fluorescence ratio: 0.998 ± 0.035

GGGGTGGTAA
switch fluorescence ratio: 1.01 ± 0.02

GTATCAACGG
switch fluorescence ratio: 1.034 ± 0.0028

GTGGGTGTGT
switch fluorescence ratio: 1.02 ± 0.045

TGTTTTGTAG
switch fluorescence ratio: 1 ± 0.015

AGACTTCAGC
switch fluorescence ratio: 1.04 ± 0.022

TTGGGGGGCA
switch fluorescence ratio: 1.32 ± 0.65

TGGCAGGGGT
switch fluorescence ratio: 1.56 ± 0.63

TGGTATAGTA
switch fluorescence ratio: 0.993 ± 0.019

TCGGGGATAG
switch fluorescence ratio: 0.979 ± 0.047

CGAATATTTG
switch fluorescence ratio: 0.996 ± 0.026

CTGGTACAGA
switch fluorescence ratio: 0.97 ± 0.13

TCATCAAGGG
switch fluorescence ratio: 0.965 ± 0.012

GGAGGGGGCA
switch fluorescence ratio: 0.9654 ± 0.0011

GGGGGGCTAA
switch fluorescence ratio: 0.984 ± 0.021

AATAATTGTG
switch fluorescence ratio: 1.02 ± 0.028

TGCCGGTTTT
switch fluorescence ratio: 1.01 ± 0.036

GATCATAGGG
switch fluorescence ratio: 1.01 ± 0.018

GCCGGGGCGC
switch fluorescence ratio: 1 ± 0.012

TCGTTCAGTA
switch fluorescence ratio: 0.958 ± 0.014

GAAATCGGTG
switch fluorescence ratio: 0.995 ± 0.036

CATAGGCATT
switch fluorescence ratio: 1.03 ± 0.016

GTTTGGGTCA
switch fluorescence ratio: 1.03 ± 0.011

TAGGGTGGGG
switch fluorescence ratio: 0.99 ± 0.072

CCGCGACAAG
switch fluorescence ratio: 2.18 ± 0.086

GATTGTAAAG
switch fluorescence ratio: 1.021 ± 0.01

AGGGGTGAAA
switch fluorescence ratio: 0.987 ± 0.021

AACTCTGTTA
switch fluorescence ratio: 0.982 ± 0.03

TTGGCACAGT
switch fluorescence ratio: 1.008 ± 0.0048

TAGTAGGGGG
switch fluorescence ratio: 0.9691 ± 0.0061
